Data taken from IntAct's records for PubMed 23917616.

B1: Myotubularin (Homo sapiens), Q13496 (parent)
chain: MASASTSKYNSHSLENESIKRTSRDGVNRDLTEAVPRLPGETLITDKEVIYICPFNGPIKGRVYITNYRLYLRSLETDSSLILDVPLGVISRIEKMGGATSRGENSYGLDITCKDMRNLRFALKQEGHSRRDMFEILTRYAFPLAHSLPLFAFLNEEKFNVDGWTVYNPVEEYRRQGLPNHHWRITFINKCYELCDTYPALLVVPYRASDDDLRRVATFRSRNRIPVLSWIHPENKTVIVRCSQPLVGMSGKRNKDDEKYLDVIRETNKQISKLTIYDARPSVNAVANKATGGGYESDDAYHNAELFFLDIHNIHVMRESLKKVKDIVYPNVEESHWLSSLESTHWLEHIKLVLTGAIQVADKVSSGKSSVLVHCSDGWDRTAQLTSLAMLMLDSFYRSIEGFEILVQKEWISFGHKFASRIGHGDKNHTDADRSPIFLQFIDCVWQMSKQFPTAFEFNEQFLIIILDHLYSCRFGTFLFNCESARERQKVTERTVSLWSLINSNKEKFKNPFYTKEINRVLYPVASMRHLELWVNYYIRWNPRIKQQQPNPVEQRYMELLALRDEYIKRLEELQLANSAKLSDPPTSPSSPSQMMPHVQTHF
partner: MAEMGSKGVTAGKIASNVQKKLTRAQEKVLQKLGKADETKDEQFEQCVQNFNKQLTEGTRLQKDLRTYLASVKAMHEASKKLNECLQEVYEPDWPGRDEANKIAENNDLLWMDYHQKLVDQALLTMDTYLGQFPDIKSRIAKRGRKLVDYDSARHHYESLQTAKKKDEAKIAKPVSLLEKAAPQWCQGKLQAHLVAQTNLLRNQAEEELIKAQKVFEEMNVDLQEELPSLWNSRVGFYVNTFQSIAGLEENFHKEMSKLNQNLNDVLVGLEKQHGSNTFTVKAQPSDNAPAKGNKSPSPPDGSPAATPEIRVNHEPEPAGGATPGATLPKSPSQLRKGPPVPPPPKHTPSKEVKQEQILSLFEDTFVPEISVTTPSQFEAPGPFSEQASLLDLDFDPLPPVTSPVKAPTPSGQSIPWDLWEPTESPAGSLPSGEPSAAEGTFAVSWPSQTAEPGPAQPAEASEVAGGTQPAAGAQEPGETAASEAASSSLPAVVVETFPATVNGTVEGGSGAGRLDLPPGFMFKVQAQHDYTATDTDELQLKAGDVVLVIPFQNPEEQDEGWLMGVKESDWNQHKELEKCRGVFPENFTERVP

Variants of: B1
Conditions: with bin1_human BIN1, O00499

| Variant | effect of a mutation on the interaction |
| --- | --- |
| C375S | disrupting interaction |
